Laboratory results as given in patent US20180141972.

Assays:
[1] = test system: Spycatcher-WELQ-LSSmOrange fusion protein
[2] = molecular target: Spycatcher-WELQ-Tem1 fusion protein (Spycatcher followed by a SplB protease site with a P1' methionine and the lactamase Tem1) (UniProt P62593)

Substance: SplB protease fused to Spytag
- cleavage of the fusion protein to native LSSmOrange (gel, FIG. 4) [1]: A similar experiment with LSSmOrange replacing Tem1 yielded the same result
- cleavage of the fusion protein to native Tem1 (gel, FIG. 3) [2]: this led to the cleavage of Tem1 at the first methionine
